Data set [1] deals with porcine erythrocytes. The data set can be described thus: Hemolytic activity assay (release of hemoglobin). The data set is classed as cell-based. As to conditions: 0~80 μg/ml, 37°C for 1 h. On the procedure: The release of hemoglobin from porcine erythrocytes was used as a measure for the hemolytic activity of defensin as described before. 1mL fresh porcine blood was centrifuged at 1800 g for 10 min for collecting erythrocytes in the presence of heparin to prevent coagulation. The pellet was washed three times and re-suspended in saline solution at the proportion of 1:9. Subsequently, 100 μL erythrocyte solution was mixed with 100 μL of individual mutated defensins (final concentrations were 0~80 μg/ml) in polypropylene 96-well microtiter plates. After incubation at 37°C for 1 h, the plate was centrifuged at 1800 g for 5 min. 100 μL supernatant was transferred to a new 96-well plate separately and the absorbance was measured at 450 nm (reference 630 nm) using a microplate reader. The hemolysis ratio was calculated by comparison with the control samples containing no peptide or 1% Trition-100 [24–25].
Different concentrations of mutant pBD2 protein (100 μL) were separately incubated with erythrocytes (100 μL) at 37°C for 1 h. Less than 10% hemolysis ratio was found at all different concentrations of mpBD2-1~8 (data not shown). No significant differences were observed among different concentrations or among different mutants (P > 0.05).

The conditions of data set [2]: cited from earlier work. An excerpt: In this report, eight amino acids of pBD2 were selected for substitution by arginine or lysine based on rational analysis. It was hypothesized that the major factor defining the antimicrobial activities of defensins was their cationicity or isoelectric point (pI) values. Indeed, the antimicrobial activities of defensins increased with their net charges. Harder et al reported that human beta defensin 3 (hBD3) had the strongest activity among hBD1, 2 and 3, because it had the most net positive charges (hBD1, 2 and 3 has +5, +6, and +11 net pos ...

Where no end group is shown, it is not given here.

For Porcine β defensin 2 [pBD2], in data set [1], the “hemolytic activity (in words)” value was “low hemolytic activities”.

With “hBD2: human beta defensin 2 (GIGDPVTCLKSGAICHPVFCPRRYKQIGTCGLPGTKCCKKP; ends and bridges not checked; cysteine pairing not given here; UniProt O15263 24-64, looked up)”, the net positive charges result in data set [2] is listed as “+6”. For the substance “human beta defensin 3 (GIINTLQKYYCRVRGGRCAVLSCLPKEEQIGKCSTRGRKCCRRKK; ends and bridges not checked; cysteine pairing not given here; UniProt P81534 23-67, looked up) [hBD3]”, the net positive charges result in data set [2] was “+11”. In the case of “human β defensin 1 (DHYNCVSSGGQCLYSACPIFTKIQGTCYRGKAKCCK; ends and bridges not checked; cysteine pairing not given here; UniProt P60022 33-68, looked up) [hBD1]”, in data set [2], the net positive charges entry is listed as “+5”.

(Values after publication PMC4342241, “Antimicrobial Characterization of Site-Directed Mutagenesis of Porcine Beta Defensin 2” (PLoS ONE, 2015).)
